Laboratory results from patent US20200317753A1 (LIFEARC, published 2020).
Read-outs that look alike come from different tables or passages of the source.

How the values were obtained:
[1] = target: T1, SP70 peptide epitope of the EV71 VP1 capsid protein (Enterovirus 71); experiment: binding ELISA on SP70 peptide, absorbance at 450 nm
T1 construct: 15-amino acid peptide; residues 208-222 counted on VP1
T1 peptide: YPTFGEHKQEKDLEY

[2] = target: T2, EV71-VLP (virus-like particle) (Enterovirus 71); experiment: binding ELISA on EV71-VLP, absorbance at 450 nm
T2 construct: Particle of several capsid proteins

[3] = target: T2, EV71-VLP (virus-like particle); experiment: Bio-Layer Interferometry, steady state plot (apparent KD)
[4] = target: T1, SP70 peptide epitope of the EV71 VP1 …; experiment: binding ELISA on SP70 peptide, absorbance at 450 nm
[5] = target: T1, SP70 peptide epitope of the EV71 VP1 …; experiment: isothermal titration calorimetry, observed KA
Source text: (§1) KD can be calculated using Gibbs free energy, enthalpy and entropy: ΔG=ΔH−TΔS and ΔG=RT In KD.

[6] = target: T1, SP70 peptide epitope of the EV71 VP1 …; experiment: isothermal titration calorimetry, observed KD
Source text: as §1

[7] = target: T1, SP70 peptide epitope of the EV71 VP1 …; experiment: isothermal titration calorimetry (observed KD); the text paragraph 208 prints 17.1 nM
[8] = target: T2, EV71-VLP (virus-like particle); experiment: binding ELISA on EV71-VLP, absorbance at 450 nm; remark: listed apart in the source
[9] = target: T1, SP70 peptide epitope of the EV71 VP1 …; experiment: binding ELISA on SP70 peptide, OD 650 nm
Procedure: (§2) Serial dilutions of antibody variants (starting from ˜100 −g/ml) were added to immobilised EV71-VLP or the SP70 peptide epitope, shaken for one hour at room temperature and washed with PBS-T. Anti-human kappa chain HRP was added and the incubation and washing steps were repeated. TMB/K-Blue substrate was incubated with the reaction for 5-10 minutes at room temperature before the reaction was stopped with H₂SO₄ RED STOP. The optical density was read at 450/650 nm.

[10] = target: T1, SP70 peptide epitope of the EV71 VP1 …; experiment: isothermal titration calorimetry
[11] = target: T1, SP70 peptide epitope of the EV71 VP1 …; experiment: binding ELISA on SP70 peptide, OD 650 nm [upper panel]
Procedure: as §2

[12] = target: T1, SP70 peptide epitope of the EV71 VP1 …; experiment: binding ELISA on SP70 peptide, OD 650 nm
Procedure: as §2

[13] = target: T1, SP70 peptide epitope of the EV71 VP1 …; experiment: binding ELISA on SP70 peptide, antibody not incubated, OD 650 nm [top panel]

B1: murine D5 antibody (antibody, V domains shown)
VH: EVQLQQSGAELVKPGASVKLSCTASGFNIKDTYIHWVKQRPEQGLEWIGKIDPANGNTKYDPKFQDKATITADTSSNTAYLQLSSLTSEDTAVYYCANSNYWFDFDYWGQGTTLTVSS
VL: DVLMTQTPLSLPVSLGDQASISCRSSQSIVHSNGNTYLEWYLQKPGQSPKLLIYKVSNRFSGVPDRFSGSGSGTDFTLKISRVEADDVGVYYCYQGSHVPYTFGGGTKLEIK
notes: Mouse monoclonal IgG1 (label mD5 IgG1); also called mD5; mouse D5
[1]
  EC50: 0.3 nM
[2]
  EC50: 12.7 nM
[3]
  Kd: 1.8 nM

B2: chimeric D5 antibody (antibody, V domains shown)
VH: EVQLQQSGAELVKPGASVKLSCTASGFNIKDTYIHWVKQRPEQGLEWIGKIDPANGNTKYDPKFQDKATITADTSSNTAYLQLSSLTSEDTAVYYCANSNYWFDFDYWGQGTTLTVSS
VL: DVLMTQTPLSLPVSLGDQASISCRSSQSIVHSNGNTYLEWYLQKPGQSPKLLIYKVSNRFSGVPDRFSGSGSGTDFTLKISRVEADDVGVYYCYQGSHVPYTFGGGTKLEIK
notes: Human constant regions and murine D5 variable regions, expressed in Expi293 cells; also called chD5; cD5 CHCK
[4]
  EC50: 6.7 nM
[5]
  Ka: 5.66e+07 M⁻¹
[6]
  Kd: 17.1 nM
[7]
  Kd: 17.7 nM
[8]
  EC50: 1.6 nM
[9]
  EC50: 1.4 nM
[3]
  Kd: 0.2 nM
[10]
  ΔH: -12.8 kcal/mol
  ΔS: -7.63 cal/mol/deg

B3: hEV71 HAKA (antibody, V domains shown)
VH: QVQLVQSGAEVKKPGASVKVSCKASGYTFTDTYIHWVRQAPGQRLEWIGKIDPANGNTKYDPKFQDRVTITRDTSASTAYMELSSLRSEDTAVYYCASSNYWFDFDYWGQGTLVTVSS
VL: DIVMTQSPLSLPVTPGEPASISCRSSQSIVHSNGNTYLEWYLQKPGQSPQLLIYKVSNRFSGVPDRFSGSGSGTDFTLKISRVEAEDVGVYYCYQGSHVPYTFGGGTKVEIK
notes: Variable domains only; cloned into pHuG1 and pHuK (human IgG / kappa) vectors, expressed in Expi293 cells
[11]
  binding result: binds

B4: hEV71 HNKA (antibody, V domains shown)
VH: QVQLVQSGAEVKKPGASVKVSCKASGFNIKDTYIHWVKQAPGQRLEWIGKIDPANGNTKYDPKFQDKATITADTSASTAYMELSSLRSEDTAVYYCANSNYWFDFDYWGQGTLVTVSS
VL: DIVMTQSPLSLPVTPGEPASISCRSSQSIVHSNGNTYLEWYLQKPGQSPQLLIYKVSNRFSGVPDRFSGSGSGTDFTLKISRVEAEDVGVYYCYQGSHVPYTFGGGTKVEIK
notes: Variable domains only
[9]
  EC50: 1.35 nM

B5: hEV71 HJKA (antibody, V domains shown)
VH: QVQLVQSGAEVKKPGASVKVSCKASGYTFTDTYIHWVRQAPGQRLEWIGKIDPANGNTKYDPKFQDRVTITRDTSASTAYMELSSLRSEDTAVYYCANSNYWFDFDYWGQGTLVTVSS
VL: DIVMTQSPLSLPVTPGEPASISCRSSQSIVHSNGNTYLEWYLQKPGQSPQLLIYKVSNRFSGVPDRFSGSGSGTDFTLKISRVEAEDVGVYYCYQGSHVPYTFGGGTKVEIK
notes: Variable domains only; pHuG1 / pHuK vectors
[12]
  binding result: binds

B6: hEV71 HQKA (antibody, V domains shown)
VH: QVQLVQSGAEVKKPGASVKVSCTASGFNIKDTYIHWVKQAPGQRLEWIGKIDPANGNTKYDPKFQDKATITADTSANTAYMELSSLRSEDTAVYYCANSNYWFDFDYWGQGTLVTVSS
VL: DIVMTQSPLSLPVTPGEPASISCRSSQSIVHSNGNTYLEWYLQKPGQSPQLLIYKVSNRFSGVPDRFSGSGSGTDFTLKISRVEAEDVGVYYCYQGSHVPYTFGGGTKVEIK
notes: Variable domains only
[9]
  EC50: 1.09 nM

B7: hEV71 HHKA (antibody, V domains shown)
VH: QVQLVQSGAEVKKPGASVKVSCKASGYTFTDTYIHWVRQAPGQRLEWIGKIDPANGNTKYDPKFQDRATITRDTSASTAYMELSSLRSEDTAVYYCASSNYWFDFDYWGQGTLVTVSS
VL: DIVMTQSPLSLPVTPGEPASISCRSSQSIVHSNGNTYLEWYLQKPGQSPQLLIYKVSNRFSGVPDRFSGSGSGTDFTLKISRVEAEDVGVYYCYQGSHVPYTFGGGTKVEIK
notes: Named only within the range hEV71 HCKA to hEV71 HJKA; Variable domains only
[12]
  binding result: binds

B8: hEV71 HFKA (antibody, V domains shown)
VH: QVQLVQSGAEVKKPGASVKVSCKASGYTFKDTYIHWVRQAPGQRLEWIGKIDPANGNTKYDPKFQDRVTITRDTSASTAYMELSSLRSEDTAVYYCASSNYWFDFDYWGQGTLVTVSS
VL: DIVMTQSPLSLPVTPGEPASISCRSSQSIVHSNGNTYLEWYLQKPGQSPQLLIYKVSNRFSGVPDRFSGSGSGTDFTLKISRVEAEDVGVYYCYQGSHVPYTFGGGTKVEIK
notes: as for B7
[12]
  binding result: binds

B9: hEV71 HIKA (antibody, V domains shown)
VH: QVQLVQSGAEVKKPGASVKVSCKASGYTFTDTYIHWVRQAPGQRLEWIGKIDPANGNTKYDPKFQDRVTITADTSASTAYMELSSLRSEDTAVYYCASSNYWFDFDYWGQGTLVTVSS
VL: DIVMTQSPLSLPVTPGEPASISCRSSQSIVHSNGNTYLEWYLQKPGQSPQLLIYKVSNRFSGVPDRFSGSGSGTDFTLKISRVEAEDVGVYYCYQGSHVPYTFGGGTKVEIK
notes: as for B7
[12]
  binding result: binds

B10: hEV71 HGKA (antibody, V domains shown)
VH: QVQLVQSGAEVKKPGASVKVSCKASGYTFTDTYIHWVRQAPGQRLEWIGKIDPANGNTKYDPKFQDKVTITRDTSASTAYMELSSLRSEDTAVYYCASSNYWFDFDYWGQGTLVTVSS
VL: DIVMTQSPLSLPVTPGEPASISCRSSQSIVHSNGNTYLEWYLQKPGQSPQLLIYKVSNRFSGVPDRFSGSGSGTDFTLKISRVEAEDVGVYYCYQGSHVPYTFGGGTKVEIK
notes: as for B7
[12]
  binding result: binds

B11: hEV71 HPKA (antibody, V domains shown)
VH: QVQLVQSGAEVKKPGASVKVSCKASGYTFTDTYIHWVRQAPGQRLEWIGKIDPANGNTKYDPKFQDKVTITRDTSASTAYMELSSLRSEDTAVYYCANSNYWFDFDYWGQGTLVTVSS
VL: DIVMTQSPLSLPVTPGEPASISCRSSQSIVHSNGNTYLEWYLQKPGQSPQLLIYKVSNRFSGVPDRFSGSGSGTDFTLKISRVEAEDVGVYYCYQGSHVPYTFGGGTKVEIK
notes: Variable domains only
[9]
  EC50: 67.7 nM

B12: hEV71 HDKA (antibody, V domains shown)
VH: QVQLVQSGAEVKKPGASVKVSCKASGYNFTDTYIHWVRQAPGQRLEWIGKIDPANGNTKYDPKFQDRVTITRDTSASTAYMELSSLRSEDTAVYYCASSNYWFDFDYWGQGTLVTVSS
VL: DIVMTQSPLSLPVTPGEPASISCRSSQSIVHSNGNTYLEWYLQKPGQSPQLLIYKVSNRFSGVPDRFSGSGSGTDFTLKISRVEAEDVGVYYCYQGSHVPYTFGGGTKVEIK
notes: Variable domains only
[12]
  binding result: binds

B13: hEV71 HBKA (antibody, V domains shown)
VH: QVQLVQSGAEVKKPGASVKVSCKASGFNIKDTYIHWVRQAPGQRLEWIGKIDPANGNTKYDPKFQDKATITADTSASTAYMELSSLRSEDTAVYYCANSNYWFDFDYWGQGTLVTVSS
VL: DIVMTQSPLSLPVTPGEPASISCRSSQSIVHSNGNTYLEWYLQKPGQSPQLLIYKVSNRFSGVPDRFSGSGSGTDFTLKISRVEAEDVGVYYCYQGSHVPYTFGGGTKVEIK
notes: as for B5
[9]
  EC50: 1.62 nM

B14: hEV71 HAKB (antibody, V domains shown)
VH: QVQLVQSGAEVKKPGASVKVSCKASGYTFTDTYIHWVRQAPGQRLEWIGKIDPANGNTKYDPKFQDRVTITRDTSASTAYMELSSLRSEDTAVYYCASSNYWFDFDYWGQGTLVTVSS
VL: DVLMTQSPLSLPVTPGEPASISCRSSQSIVHSNGNTYLEWYLQKPGQSPQLLIYKVSNRFSGVPDRFSGSGSGTDFTLKISRVEAEDVGVYYCYQGSHVPYTFGGGTKVEIK
notes: as for B5
[11]
  binding result: binds

B15: hEV71 HCKA (antibody, V domains shown)
VH: QVQLVQSGAEVKKPGASVKVSCKASGFTFTDTYIHWVRQAPGQRLEWIGKIDPANGNTKYDPKFQDRVTITRDTSASTAYMELSSLRSEDTAVYYCASSNYWFDFDYWGQGTLVTVSS
VL: DIVMTQSPLSLPVTPGEPASISCRSSQSIVHSNGNTYLEWYLQKPGQSPQLLIYKVSNRFSGVPDRFSGSGSGTDFTLKISRVEAEDVGVYYCYQGSHVPYTFGGGTKVEIK
notes: as for B5
[12]
  binding result: binds

B16: hEV71 HEKA (antibody, V domains shown)
VH: QVQLVQSGAEVKKPGASVKVSCKASGYTITDTYIHWVRQAPGQRLEWIGKIDPANGNTKYDPKFQDRVTITRDTSASTAYMELSSLRSEDTAVYYCASSNYWFDFDYWGQGTLVTVSS
VL: DIVMTQSPLSLPVTPGEPASISCRSSQSIVHSNGNTYLEWYLQKPGQSPQLLIYKVSNRFSGVPDRFSGSGSGTDFTLKISRVEAEDVGVYYCYQGSHVPYTFGGGTKVEIK
notes: as for B7
[12]
  binding result: binds

B17: hEV71 HMKA (antibody, V domains shown)
VH: QVQLVQSGAEVKKPGASVKVSCTASGFNIKDTYIHWVRQAPGQRLEWIGKIDPANGNTKYDPKFQDKATITADTSANTAYMELSSLRSEDTAVYYCANSNYWFDFDYWGQGTLVTVSS
VL: DIVMTQSPLSLPVTPGEPASISCRSSQSIVHSNGNTYLEWYLQKPGQSPQLLIYKVSNRFSGVPDRFSGSGSGTDFTLKISRVEAEDVGVYYCYQGSHVPYTFGGGTKVEIK
notes: Variable domains only; pHuG1 / pHuK vectors, Expi293 cells; behaves as an IgG monomer; also called huEV71 HMKA; EVM00
[13]
  EC50 (read off the curve): ~0.8 nM
[5]
  Ka: 2.62e+07 M⁻¹
[6]
  Kd: 38.2 nM
[9]
  EC50: 1.15 nM
[10]
  ΔH: -16.5 kcal/mol
  ΔS: -21.4 cal/mol/deg
